Results as given in US20090022663A1 (published 2009).

Target: T1, 161P2F10B variant 1 (human 161P2F10B), on the cell surface (human, UniProt O14638 1-875)
T1 construct: Cell surface pyrophosphatase/phosphodiesterase; also called 161P2F10B v.1; CD203c
Test: flow cytometry on cells or ELISA on immobilized 161P2F10B

B1: H16-1.80 (antibody, V domains shown)
VH: QVQLQESGPGLVKPSETLSLTCTVSGGSISSYYWSWIRQPPGKGLEWIGYVYFSGSTNYNPSLKSRVTISVDTSKNQFSLKLSSVTAADTAVYYCARATRDYYYYGMDVWGQGTTVTVSS
VL: DIQMTQSPSSLSASVGDRVTITCRTSHDISNYLNWYQQKPGKAPKLLIYAASSLQSGVPSRFSGSRSGTDFTLTISSLQPEDFATYYCQQTYSTLFTFGPGTKVDIKR
notes: also called Ha16-1.80; HA16-1.80
B1: binds.
